Source: patent US11371056B2, “HPPD variants and methods of use” (BASF Agricultural Solutions Seed US LLC, priority 2017, dated 2022)
Changes are numbered by the printed parent chain.

B1: SEQ ID NO:15 (protein)
chain: MADLYENPMGLMGFEFIEFASPTPGTLEPIFEIMGFTKVATHRSKNVHLYRQGEINLILNNEPNSIASYFAAEHGPSVCGMAFRVKDSQKAYNRALELGAQPIHIDTGPMELNLPAIKGIGGAPLYLIDRFGEGSSIYDIDFVYLEGVERNPVGAGLKVIDHLTHNVYRGRMVYWANFYEKLFNFREARYFDIKGEYTGLTSKAMSAPDGMIRIPLNEESSKGAGQIEEFLMQFNGEGIQHVAFLTDDLVKTWDALKKIGMRFMTAPGDEYYEMLEGRLPDHGEPVDQLQARGILLDGSSVEGDKRLLLQIFSEQLMGPVFFEFIQRKGDDGFGPDSFKVLFESMERDQVRRGVLTAD
modifications: mutant HPPD polypeptide
B2: SEQ ID NO:25 (protein)
chain: B1 chain with Q315T, D336H, M345I
modifications: mutant HPPD polypeptide
B3: SEQ ID NO:30 (protein)
chain: B1 chain with D336H, S344Q, M345I
modifications: mutant HPPD polypeptide
B4: SEQ ID NO:44 (protein)
chain: B1 chain with R213K, D336H
modifications: mutant HPPD polypeptide
B5: SEQ ID NO:39 (protein)
chain: B1 chain with R213K, Q315K
modifications: mutant HPPD polypeptide
B6: SEQ ID NO:19 (protein)
chain: B1 chain with S344Q
modifications: mutant HPPD polypeptide
B7: SEQ ID NO:40 (protein)
chain: B1 chain with R213K
modifications: mutant HPPD polypeptide
B8: SEQ ID NO:29 (protein)
chain: B1 chain with Q315K, D336H, S344Q, M345I
modifications: mutant HPPD polypeptide
B9: SEQ ID NO:37 (protein)
chain: B1 chain with Q315R, D336H, S344Q
modifications: mutant HPPD polypeptide
B10: SEQ ID NO:34 (protein)
chain: B1 chain with Q315T, D336H
modifications: mutant HPPD polypeptide
B11: SEQ ID NO:32 (protein)
chain: B1 chain with D336H
modifications: mutant HPPD polypeptide
B12: SEQ ID NO:23 (protein)
chain: B1 chain with D336H, M345I
modifications: mutant HPPD polypeptide
B13: SEQ ID NO:21 (protein)
chain: B1 chain with Q315T, S344Q
modifications: mutant HPPD polypeptide
B14: SEQ ID NO:18 (protein)
chain: B1 chain with Q315K, S344Q
modifications: mutant HPPD polypeptide
B15: SEQ ID NO:42 (protein)
chain: B1 chain with R213K, Q315T
modifications: mutant HPPD polypeptide
B16: SEQ ID NO:43 (protein)
chain: B1 chain with R213K, Q315K, D336H
modifications: mutant HPPD polypeptide
B17: SEQ ID NO:27 (protein)
chain: B1 chain with M264L, Q315R, D336H, M345I
modifications: mutant HPPD polypeptide
B18: SEQ ID NO:20 (protein)
chain: B1 chain with Q315R, S344Q
modifications: mutant HPPD polypeptide
B19: SEQ ID NO:24 (protein)
chain: B1 chain with Q315R, D336H, M345I
modifications: mutant HPPD polypeptide
B20: SEQ ID NO:41 (protein)
chain: B1 chain with R213K, Q315R
modifications: mutant HPPD polypeptide
B21: SEQ ID NO:22 (protein)
chain: B1 chain with Q315K, D336H, M345I
modifications: mutant HPPD polypeptide
B22: SEQ ID NO:17 (protein)
chain: B1 chain with Q315T
modifications: mutant HPPD polypeptide
B23: SEQ ID NO:31 (protein)
chain: B1 chain with Q315K, D336H
modifications: mutant HPPD polypeptide
B24: SEQ ID NO:16 (protein)
chain: B1 chain with Q315R
modifications: mutant HPPD polypeptide
B25: SEQ ID NO:33 (protein)
chain: B1 chain with Q315R, D336H
modifications: mutant HPPD polypeptide

Test system: Pseudomonas fluorescens HPPD polypeptide (wild-type and mutants)
Assay: Coupled HPPD activity assay: turnover and residual turnover in crude HPPD polypeptide extracts with and without Cmpd. 1
Assay type: biochemical
Settings: 100 μM Cmpd. 1, normalised to turnover without inhibitor
Protocol: For the generation of crude HPPD polypeptide extract in micro titer plates (MTP) for the determination of residual activity in inhibition assays, cells were grown in 40 or 150 μl LB medium containing 1% Glucose (Merck, Darmstadt, Germany) and 100 μg/ml ampicillin in a standard 96 well plate (Thermo Fisher Scientific, Waltham, USA) incubated for about 18 h in a humidity incubator at 37° C. 30 μl of this starter culture were added to 600 μl LB medium containing 100 μg/ml ampicillin and 150 mM Hepes (Merck, Darmstadt, Germany) as inoculum for the expression culture in 96 well plates (2 ml deep wells; HJ Bioanalytik, Erkelenz, Germany). The plates were sealed by an aluminium foil, and cells were incubated for 5 h at 37° C. on a plate shaker at 750 rpm. The expression was induced by addition of IPTG in a final concentration of 1 mM followed by further sealed incubation for about 18 h at 30° C. on a plate shaker at 750 rpm.
Cells were harvested by centrifugation at 4° C., 2500 g for 15 min discarding the supernatant. Cell pellets were stored at −80° C. and lysed in 250 μl 1× BugBuster® (Merck, Darmstadt, Germany) in 140 mM Tris (pH 7.8), with 1:25000 diluted BNase® (Qiagen, Hilden, Germany) by incubation of the resuspended cells for 30 min at 4° C. and 1000 rpm. Lysates were clarified by centrifugation for 15 min at 4° C., 2500 g, and 150 μl supernatant were transferred in standard 96 well plate (Thermo Fisher Scientific, Waltham, USA) for subsequent testing in quadruplets.
The activity of HPPD polypeptides was determined in absence or presence of HPPD inhibitors using the coupled HPPD activity assay (FIG. 1).
For the determination of the residual activity, the apparent kinetic constant (kapp) of the determined substrate conversion was measured as kinetic changes in absorbance (OD) at 320 nm in a coupled assay, in that homogentisate (HGA) formed by HPPD from HPP is directly converted into the well absorbing molecule maleylacetoacetate (MAA) by a second enzyme homogentisate dioxygenase (HGD), applied in excess uniformly in all assays (see FIG. 1). The measurements were performed in 384 micro titer plates (Greiner Bio-One GmbH, Frickenhausen, Germany) by plate readers (Tecan infinite M1000 or M1000PRO, Tecan, Männedorf, Switzerland). The kcat/kM ratio of an enzymatic activity is proportional to the apparent kinetic constant kapp and is proportional to kcat/kM*[E] ([E]=enzyme concentration). […] As both kapp measurements in the presence and absence of inhibitor were performed by use of the identical enzyme sample, crude or purified, and thereby at the same enzyme concentration, the enzyme concentration eliminates from the calculation of residual activity and the ratio of both kapp directly indicates the change of kM due to the inhibition.
The assay solution used for determination of residual activities in raw HPPD polypeptide samples was composed by 200 mM sodium phosphate (Merck, Darmstadt, Germany, pH 7.0), 5 mM MgCl2 (Merck, Darmstadt, Germany), 20 mM ascorbate (Sigma-Aldrich, St. Louis, USA), 1 mM DTT (Sigma-Aldrich, St. Louis, USA), 0.1% Pluronic F-68 (Sigma-Aldrich, St. Louis, USA), 40 μM FeSO4 (Sigma-Aldrich, St. […] Louis, USA) and equilibrated for 20 min on ice.

Going from B1 to B2, the “Residual turnover [%]” value rises from 39% to 45%.

First: B3
Second: B4
The “Residual turnover [%]” value of the first is higher: 61% for the first, 54% for the second.

Compared with B5, B6 is higher in “Residual turnover [%]” value: 32% for the first, 40% for the second.

Going from B7 to B8, the “Residual turnover [%]” value rises from 36% to 61%.

First: B9
Second: B10
The “Residual turnover [%]” value of the first is lower: 42% for the first, 53% for the second.

Compared with B11, B12 is lower in “Residual turnover [%]” value: 57% for the first, 48% for the second.

Going from B13 to B14, the “Residual turnover [%]” value rises from 38% to 41%.

Compared with B15, B16 is higher in “Residual turnover [%]” value: 33% for the first, 54% for the second.

Going from B17 to B18, the “Residual turnover [%]” value falls from 58% to 49%.

Going from B19 to B20, the “Residual turnover [%]” value falls from 54% to 43%.

Going from B21 to B22, the “Residual turnover [%]” value falls from 42% to 41%.

First: B23
Second: B24
The “Residual turnover [%]” value of the first is higher: 48% for the first, 46% for the second.

Same assay, conditions: absence of Cmpd. 1; changes in absorbance (OD) at 320 nm in the coupled assay, 30 min

Going from B1 to B2, the Turnover rises from 0.161 to 0.25.

Going from B3 to B4, the Turnover falls from 0.294 to 0.272.

Compared with B5, B6 is higher in Turnover: 0.176 for the first, 0.218 for the second.

Compared with B7, B8 is higher in Turnover: 0.204 for the first, 0.286 for the second.

First: B9
Second: B10
The Turnover of the first is lower: 0.106 for the first, 0.278 for the second.

First: B11
Second: B12
The Turnover of the first is lower: 0.269 for the first, 0.272 for the second.

First: B13
Second: B14
The Turnover of the first is lower: 0.214 for the first, 0.221 for the second.

First: B15
Second: B16
The Turnover of the first is lower: 0.209 for the first, 0.291 for the second.

First: B17
Second: B25
The Turnover of the first is higher: 0.262 for the first, 0.015 for the second.

Compared with B18, B19 is higher in Turnover: 0.166 for the first, 0.271 for the second.

First: B20
Second: B21
The Turnover of the first is lower: 0.247 for the first, 0.259 for the second.

Going from B22 to B23, the Turnover rises from 0.184 to 0.268.

Molecule B24 has a Turnover of 0.181.

Same assay, conditions: presence of 100 μM Cmpd. 1; changes in absorbance (OD) at 320 nm in the coupled assay, 30 min

Compared with B1, B2 is higher in Residual turnover: 0.062 for the first, 0.112 for the second.

Going from B3 to B4, the Residual turnover falls from 0.18 to 0.148.

Going from B5 to B6, the Residual turnover rises from 0.057 to 0.087.

First: B7
Second: B8
The Residual turnover of the first is lower: 0.073 for the first, 0.174 for the second.

First: B9
Second: B10
The Residual turnover of the first is lower: 0.045 for the first, 0.148 for the second.

Going from B11 to B12, the Residual turnover falls from 0.154 to 0.131.

Compared with B13, B14 is higher in Residual turnover: 0.082 for the first, 0.091 for the second.

First: B15
Second: B16
The Residual turnover of the first is lower: 0.068 for the first, 0.157 for the second.

Compared with B17, B25 is lower in Residual turnover: 0.153 for the first, 0.014 for the second.

Compared with B18, B19 is higher in Residual turnover: 0.082 for the first, 0.147 for the second.

Compared with B20, B22 is lower in Residual turnover: 0.105 for the first, 0.075 for the second.

First: B23
Second: B24
The Residual turnover of the first is higher: 0.128 for the first, 0.083 for the second.
